experiment: soluble on expression in E. coli; label from the status in PepcDB or PDB records

Sequence	soluble on expression in E. coli
MAHHHHHHMIADDMGLGKTVQALAVAHHYRNEWPVLIVCPLSLVENWTKELMRFCSIPIGRIAIFQNSKVRVTDVHSAVIVPYSSLKSLDTQSTTFQVVILDESHYIKTVDSKRTVAALKLCRVARRVLLLSGTPTLSRPIELYPQLQTIMHPSWTPSKSLFAARYCNAFVGRFGVDYLGHSHMSELHVLLQQFVIRRTKRELGNELPSKIRQLLYVYITPKEKKALEKSVSALRNSFRDGATLPTLGDVASTTNMAQGTGGNLTTCTAGGVTATRNMTAFDLKIATARAKIAAVQDYVKSTTEQMVESGQKVIIFAHHQCMMEAIREAVESVQPKQPLDYIYITGETPAAQREALTTHFRTSTNCHVAVLSMHSCGVGHNLTCATMVVFAELDWNPSTHLQCEDRVHRMGQSSACVIKYLLAEGTSDSVIWPMLQTKLNVTHAVLEDSQAGGEGWSAGADTRRILRSDVPLTPSSPEKKQLTLEGFLSHSGSRPSRPLTQSSDSNAEVLKTSDESPRADTSPDTPFQSPSAVAPAENVLFDIAKLRQQREARKVFHSMPVLGTAGAGSSPVAAVTVTPPPPQIQRQVTLHEVLTNHPANSPTPKNSPQQRTNFHVAVAAKSFNERSGAAHTSSCSSETTVCAPIVSHPVKTLFLTRPASANSSSAASSVKPHAGASAADLSVFSTASKEGSICLAPSPRSEEIRRYNARRTPFILGSTLEKRLRPDDMEDQVS	not soluble
MAKNSKFDRVQVVDKAVDLYWEKGFHGTSMRNLQEVIDMRPGSIYATFGSKEGLFKESLQRYTQSGILHLEQCCHEQKSPLLGLKSFIHNIVVEKRSSAPSGMCMLVKTVTELTNENEELLTEAKRSLKIMESEFEKVLRQAQEIGEIEKEKDTKQLAQFVQVQIAGLRTYARTVDSDLPLQNMLDNMFSHYPF	not soluble
MSLKQYSVKELTKLYKFLVIKANETRKLTLQDKNGIVKSNTDYNGVINRAQLGYDNILDILPSVSGSYSKPKYIISSNLMCYTGITGIYFPFTGEANVNIAIPDLYIPCTVEHEMAHQRGFASEDEANFIAYLTSIKHPNIDFNYSGYILALNYTASALSKVDYNAYVDISAGISDSVRRDLKNESEFWQKYEGKINEISNEFNNSYLKANGVTEGTQSYGKMVDLLLTYYELYPYNEGHHHHHH	soluble
VHEGHRKRLKERFLREGLDSFEQHQVLELLLFFSIPRKDTNELAHTLLNRYGSLSGVFEADPKDLATTPGIGENSAILLSLIPHLSRRYLNDKWRDKPELNSSAKAGQYAISLFAGRNYEVFYVICLDAQNRVNYAELVHEGTINEAPVYPRIIVETALRHKANSVILAHNHPGGTLNPSKADIEATKRIKAALEAISIKVVDHIIVCGGQYVSFAEKGLLSG	soluble
MKVVLQRVTRAAVTVGDEVVGSIGRGLCVLVGVHRDDTEEDMKYIIRKILNLRVFPASEQKPWDKSVMDLDLEVLSVSQFTLYGQFKGNKLDFHTAMAPTEASKFYASFLEAMKKAYKADKIQDGKFAAMMSVDIVNDGPVTVTFDSKEK	not soluble
MSNHIDRDVINALIAGHFADPFSVLGMHRTDAGLEVRALLPDATDVWVIEPKTGRKVGKLECLDSRGFFSGVLPRRKNAFRYQLAVTWHGQQNLIDDPYRFGPLLQ	not soluble
MVYVAITIVRVPGPAFSYHCPDFVRLYIEAMGYSPTIAPARIRVWRNAITEQGFVAVCAIDDSSDNPAAIGEGIVGIGYGFTGRSEHWWDQQIHRGLAEQKCPPVARPYFELAELHVSPRAQGQGIGRSLLHALIKHCGHELILLSTPEVPDEKNAAFHLYRSCGFDDLLRNFMFEGDRRPFAVLQRKAHRN	not soluble
MKRRRLLQSLLAGLALQPFLAASANVRIRQARAWNSSESWRLVLELDGPPRYRTFSLQAPERLILDLPDAQLLATLSELPLDGPVRAIRSGQLGGGGTRIVLDLRQAVRPRSFALEPQAGKGHRLVLDLYPQALAAPPEPMLALARPLPSTGRDILVVVDAGHGGKDPGAVGSKGEREKDVALAIARLLARRIDREKGFKARLVRNGDVFVPLRKRPEVARRYNADMFVSVHADAAPRLTASGASVYALSEHGASSTMARWMAERENGADLIGNSGNLPLQGRDKVLAGVILDMALSSTIASSLDLGHSVLGQLSDVTALHQKRVEQAGFAVLKSPDIPSILVETGFISNRGDCRRLMDERHRQRLAEAIFAGVQGYFRQRPPAGSYLAALSAQPPG	not soluble
MKNVGFIGWRGMVGSVLMDRMSQENDFENLNPVFFTTSQAGQKAPVFGGKDAGDLKSAFDIEELKKLDIIVTCQGGDYTNEVYPKLKATGWDGYWVDAASALRMKDDAIIVLDPVNQHVISEGLKKGIKTFVGGNCTVSLMLMAIGGLFEKDLVEWISVATYQAASGAGAKNMRELLSQMGLLEQAVSSELKDPASSILDIERKVTAKMRADNFPTDNFGAALGGSLIPWIDKLLPETGQTKEEWKGYAETNKILGLSDNPIPVDGLCVRIGALRCHSQAFTIKLKKDLPLEEIEQIIASHNEWVKVIPNDKEITLRELTPAKVTGTLSVPVGRLRKLAMGPEYLAAFTVGDQLLWGAAEPVRRILKQLVA	soluble
MGHHHHHHSHMGLYHVGQAGLELLTSSDPPTSASQNAEITGVSHRAQSKAHNLQRKLRLSHKSSPPCTYTQHAGGVDSHPLTQDMCVIVNVIARPFDKCNCDIYLGLASELFVVSWVQLTVPYHWIQTLGNVILFCLDTAHRGHCDIAGHCT	not soluble
MSLLTEQQRRELDWEKTDGLMPVIVQHAVSGEVLMLGYMNPEALDKTLESGKVTFFSRTKQRLWTKGETPGNFLNVVSIAPDCDNDTLLVLANPIGPTCHKGTSSCFGDTAHQWLFLYQLEQLLAERKSADPETSYTAKLYASGTKRIAQKVGEEGVETALAATVHDRFELTNEASDLMYHLLVLLQDQGLDLTPVIENLRKRHQEGHHHHHH	soluble
MGDVSKLSSNQVKLLETAFRDFETPEGSGRVSTDQIGIILEVLGIQQTKSTIRQLIDEFDPFGNGDIDFDSFKIIGARFLGEEVNPEQMQQELREAFRLYDKEGNGYISTDVMREILAELDETLSSEDLDAMIDEIDADGSGTVDFEEFMGVMTGGDE	soluble
MAQEFSGDVFVISVAAELAGMHAQTLRTYDRLGLVTPQRTRGGGRRYSRDDVELLRTVQHLSQVEGVNLAGIKSIIELKKENAQLRKELAAARAEADVLKNRGARPRGEIVHVPRSTAVVMWQPRRSSRQHD	not soluble
MEHNILQVIALAEKLKYEMRHSWLSNGRQESVAEHTWRMSLMAILVEPYLDQKVSIEKLLKMVIIHDLVEAEAGDIPAFDTMNSHDLQLQKQKNELEAILNIKQTLTGSLGEELYDLWMEFEAKETYEAKVANALDKLEVKIQHNEADIDTWLPIEHKMTFQVAKHTNFDSFLSKLQKIIEQDGEKKLIAAGIDVEACKQ	soluble
MGSDKIHHHHHHMDVRFINEQTIMIYFENKISEETYRNVTAMVRWIREKEILEIQDIVPSYRAVLIYFDEQAITSSKLIENLELNKFNEKNVHAVNQTNRIIKIPVQYGGTYGPDIEEVAKHNRITVEQVIEKHTSKPYLIYMLGFMPGFPYLGGLDEQLHTPRRNQPRLKIHAGSVGIANNQTGLYPSDSPGGWQIIGRTPLKVFSSEREPMSMYEAGEWIQFYAIDEQKFIQIERDISDGNFNVDDWVVIENVN	not soluble
MWPRNDVHMDDGSMTPEDQEPVTDNDMEYNDNGEESSYSNGSSSSYNADKLSSSRPLQHKLDLSASPSRNNDLNPRVEHLIALFKDLSSAEQMDAFTRLLQESNMTNIRQLRAIIEPHFQRDFLSCLPVELGMKILHNLTGYDLLKVAQVSKNWKLISEIDKIWKSLGVEEFKHHPDPTDRVTGAWQGTAIAAGVTIPDHIQPCDLNVHRFLKLQKFGDIFERAADKSRYLRADKIEKNWNANPIMGSAVLRGHEDHVITCMQIHDDVLVTGSDDNTLKVWCIDKGEVMYTLVGHTGGVWTSQISQCGRYIVSGSTDRTVKVWSTVDGSLLHTLQGHTSTVRCMAMAGSILVTGSRDTTLRVWDVESGRHLATLHGHHAAVRCVQFDGTTVVSGGYDFTVKIWNAHTGRCIRTLTGHNNRVYSLLFESERSIVCSGSLDTSIRVWDFTRPEGQECVALLQGHTSLTSGMQLRGNILVSCNADSHVRVWDIHEGTCVHMLSGHRSAITSLQWFGRNMVATSSDDGTVKLWDIERGALIRDLVTLDSGGNGGCIWRLCSTSTMLACAVGSRNNTEETKVILLDFDAVYP	not soluble
MADRRNLFFFYGDDKATLVEKMKPIYRILEENGFTILDHPKNANAIVSVGDDATFLQAVRKTGFREDCLYAGISTKDEISFYCDFHIDHVDTALQEITKNEIEVRKYPTIQVDVDGSTSFHCLNEFSLRSSIIKTFVVDVHVDDLYFETFRGDGLVVSTPTGSTAYNKSLHGAVVDPLIPCFQVSELASLNNNTYRTLGSPFILNHERTLTLKLRPDGNDYPVIGMDNEALSIKQVEKAVVRLSDKQIKTVKLKNNSFWEKVQRTFLLEHHHHHH	soluble
MDGQTLHAWAKRFALELPFTEHCWPFGPQYDVFKVGGKIFMLFTEHHCRPVVNLKSDPQKSLVNQQIYPSIAPGYHMNKKHWISVYAGEDITVSLLNDLINDSWNLVVDGLPKREQLRLRPR	not soluble
MRSSAKQEELVKAFKALLKEEKFSSQGEIVAALQEQGFDNINQSKVSRMLTKFGAVRTRNAKMEMVYCLPAELGVPTT	soluble
MGHHHHHHSHMSGSAMQEGLSPNHLKKAKLMFFYTRYPSSNMLKTYFSDVKFNRCITSQLIKWFSNFREFYYIQMEKYARQAINDGVTSTEELSITRDCELYRALNMHYNKANDFEVPERFLEVAQITLREFFNAIIAGKDVDPSWKKAIYKVICKLDSEVPEIFKSPNCLQELLHE	soluble
MSLKRQLGKDVVQAARERIHILFDEFEHIYVSFSGGKDSGVLLHLVIEEARKRNRLPVDVLIVDLEAQYQHTIHFVERMVNKKEVNAFWVCLPLSLRNSVSQFQPKWICWDPDKKEDWIRALPLHASVINEEEYFSFYSFGMEFETFVSAFGEWYSEKKQCPCACLVAIRADESLNRYKTIKNQRKKRLKQYGWTTKASDVFYKAYLIYDWHVTDIWIANGRFNWDYNHVYDLMHKAGLSLAQQRLCQPFGDDQRKGLWLYQILEPQTWQKLVVRVEGCNFGARYSKKQGHILGYYKFDLPEGYTYRSYSKYLLNSMPPHLADHYRKRLFKFLNWWRKNGKEQGILSIPDFADKKLEAKKKVPSWRRICKVLIKNDYWCRGLSFGQSKKLTEHYIDLYEGYFRKEGHHHHHH	soluble
MNQEFFMLSQAMVEHLNEQINLEFFSSNLYLQMSAWCEDKGFDGAAEFLRAHAVEEMQHMQRLFTYVSETGALPILGAIAAPRHDFASLGEVFRETYQHEQKITQQINKLAHVAFTSQDYSTFNFLQWYVAEQHEEEKLFKGILDKLELVGEDGKALFFIDKDLAALAKKGSSSVMDAPAE	not soluble
MGFHLRGNNDFAFKRLYINLPQNSQMRAQLRRLIDNGSDTVVVSDKQDADAFLDVLSENRVKTISSLTPQGVVREYRITYRFSFQLRDAHDNLLIPPSEITLFRDLSYNETQVLAKDYEEAALYRDMQGDIVNQLVRRLASVRLPSLEHHHHHH	soluble
MGSDKIHHHHHHMSSQNALYMLIDERLRRDELKLPGLPETAEQVRNAAMDPDCNLHDLCHIIQQDTALTARLIRLANSAYLGGRNKAESLMQALTRIGMRRIRTLALAMAMEQVFKPDNDIVQMFSQQFIVESREIAAAAVVITEDLQHRGIGHRLHQDVALLAGMVSRIGVAPILHMANEFEDSFANPSFIKECITQFSSTLGSNILSYWQFTPNLVQVPLCYYNGRMTLNDAITVNYCDIVHLAGLLTGNVKPNKDSVTLVEYQMLGVIKTDDFWQQESVQKSYRQMLDLLS	not soluble

Source: the DeepSol protein solubility set
